This is an account of results in paper PMC10042821, “Cryo-EM structure of human eIF5A-DHS complex reveals the molecular basis of hypusination-associated neurodegenerative disorders” (Nature Communications, 2023).

What all share (test): MST; Monolith NT.115; 8.32 nM His-tagged DHS labelled with RED-tris-NTA, eIF5A titrated 0.00175-57.5 uM; 50 mM Tris, 200 mM NaCl, 5 mM beta-ME pH 8; free buffer
Common to all, as to conditions: both partners purified

The target of assay [1] is T1, deoxyhypusine synthase E137A, His-tagged (human, UniProt P49366 1-369, E137A).
T1 construct: deoxyhypusine synthase (DHS), Homo sapiens, UniProt P49366, residues 1-369; source: E. coli, purified; His-tagged protein labelled with RED-tris-NTA for MST; not shown: His6, N-terminal, kept
T1 sequence (looked up): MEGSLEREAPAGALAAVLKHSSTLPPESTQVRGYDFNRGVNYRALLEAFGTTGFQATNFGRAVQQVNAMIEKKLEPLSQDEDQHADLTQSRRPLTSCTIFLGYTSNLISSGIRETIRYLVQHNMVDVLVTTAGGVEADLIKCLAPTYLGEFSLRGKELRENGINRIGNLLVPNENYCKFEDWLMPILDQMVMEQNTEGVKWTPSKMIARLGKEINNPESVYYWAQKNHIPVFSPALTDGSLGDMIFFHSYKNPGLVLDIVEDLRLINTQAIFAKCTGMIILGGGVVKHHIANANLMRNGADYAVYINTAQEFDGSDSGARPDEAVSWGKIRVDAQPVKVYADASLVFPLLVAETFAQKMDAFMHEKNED

The target in assay [2] is T2, deoxyhypusine synthase delY305_I306, patient-derived variant, His-tagged (human, UniProt P49366 1-369, delY305_I306).
T2 construct: deoxyhypusine synthase (DHS), Homo sapiens, UniProt P49366, residues 1-369, pathological variant lacking Y305 and I306; Primarily dimeric by mass photometry; also called DHS^delY305_I306; DHS^del305Y_306I; source: E. coli, purified from the soluble fraction; His-tagged protein labelled with RED-tris-NTA for MST; not shown: His6, N-terminal, kept
T2 sequence (looked up): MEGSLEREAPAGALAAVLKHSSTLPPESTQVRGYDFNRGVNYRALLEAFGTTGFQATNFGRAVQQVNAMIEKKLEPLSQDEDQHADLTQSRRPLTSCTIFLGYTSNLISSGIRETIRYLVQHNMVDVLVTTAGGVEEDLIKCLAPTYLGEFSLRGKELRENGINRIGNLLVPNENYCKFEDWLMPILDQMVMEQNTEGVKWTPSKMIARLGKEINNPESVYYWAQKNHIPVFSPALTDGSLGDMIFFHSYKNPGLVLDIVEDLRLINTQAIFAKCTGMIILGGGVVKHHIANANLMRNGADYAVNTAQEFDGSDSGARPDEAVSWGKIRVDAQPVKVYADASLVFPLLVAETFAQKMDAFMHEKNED

Assay [3] deals with T3, deoxyhypusine synthase D243A, His-tagged (human, UniProt P49366 1-369, D243A).
T3 construct: deoxyhypusine synthase (DHS), Homo sapiens, UniProt P49366, residues 1-369; source: E. coli, purified; His-tagged protein labelled with RED-tris-NTA for MST; not shown: His6, N-terminal, kept
T3 sequence (looked up): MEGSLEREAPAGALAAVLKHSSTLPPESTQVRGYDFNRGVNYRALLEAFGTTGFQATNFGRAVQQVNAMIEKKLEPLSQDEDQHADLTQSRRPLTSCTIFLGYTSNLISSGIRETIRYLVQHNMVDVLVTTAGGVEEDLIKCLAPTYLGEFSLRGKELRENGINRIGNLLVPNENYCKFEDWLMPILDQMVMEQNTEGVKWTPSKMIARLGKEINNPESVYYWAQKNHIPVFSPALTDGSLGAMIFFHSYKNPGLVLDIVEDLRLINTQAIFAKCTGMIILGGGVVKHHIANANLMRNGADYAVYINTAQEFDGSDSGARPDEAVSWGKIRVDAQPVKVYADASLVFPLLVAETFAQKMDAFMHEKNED

B1: eukaryotic translation factor 5A-1 (eIF5A-1), residues 15-151 (domain or fragment)
chain: not shown
notes: eIF5A1 (eukaryotic translation factor 5A-1), human, residues 15-151, from pET28-MHL (Addgene); The general purification removes the His tag with TEV; A His-tagged eIF5A1 was used only in the hypusination assay; source: E. coli, purified (HisTrap, TEV cleavage, reverse HisTrap, SEC); not shown: His tag, N-terminal, cleaved
With B1, the equilibrium dissociation constant (Kd) was more than 1000 nM in assay [1], 80 ± 23.4 nM in assay [2] and 511 ± 182 nM in assay [3].

The Kd is a measure of binding affinity in units of concentration. A higher Kd goes with weaker binding.
